Reference: article PMC6662822, “Rational drug-design approach supported with thermodynamic studies — a peptide leader for the efficient bi-substrate inhibitor of protein kinase CK2” (Scientific Reports, 2019)
Where no end group is shown, it is not given here. 7‑COOH‑Br3Bt = not defined here

Target: catalytic subunit of human protein kinase CK2 (human) (UniProt P68400)
Sequence (P68400 whole entry): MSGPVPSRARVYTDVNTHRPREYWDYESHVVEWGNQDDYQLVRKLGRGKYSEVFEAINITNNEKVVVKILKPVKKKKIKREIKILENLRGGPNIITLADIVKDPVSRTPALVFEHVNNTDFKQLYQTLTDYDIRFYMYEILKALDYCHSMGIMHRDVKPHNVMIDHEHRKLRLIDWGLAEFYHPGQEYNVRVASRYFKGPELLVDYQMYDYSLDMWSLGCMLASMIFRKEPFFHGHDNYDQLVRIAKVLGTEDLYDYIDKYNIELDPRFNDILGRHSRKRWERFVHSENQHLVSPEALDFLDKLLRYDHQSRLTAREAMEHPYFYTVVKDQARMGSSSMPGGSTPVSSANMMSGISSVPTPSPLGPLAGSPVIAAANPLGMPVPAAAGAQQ

**Q.** Which IC50 of inhibition of hCK2α kinase activity (ADP-Glo assay; 10 μM substrate peptide …, 10 μM ATP, 30 °C) does the source give for K(7‑COOH‑Br3Bt)ESEEE-NH2 (reading uncertain) [bi-substrate inhibitor (KESEEE-NH2 conjugated with 7-COOH-Br3Bt)] here?
**A.** 0.67 µM
